Measurements: the supplement of paper PMC9112550, “Optimization of the antimicrobial peptide Bac7 by deep mutational scanning” (BMC Biology, 2022)

Test system: Escherichia coli TOP10
Assay: shrunken log2 fold change of peptide-encoding DNA abundance (4.5 h post-induction vs induction); higher = less antimicrobial activity (less host growth inhibition)
Conditions: time post-induction: 4.5 h; library: site-saturation at positions 5, 18, 19, 20
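Note: peptides expressed intracellularly from a pBAD plasmid library in pooled LB shake-flask culture, induced with 0.3% L-arabinose, DNA abundance read by NGS, three biological replicates, DESeq2 with apeglm shrinkage.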

Sequence | shrunken log2 fold change
RRIRRRPPRLPRPRPRPIKYPRP | 0.0338
RRIRLRPPRLPRPRPRPSYVPRP | -0.13
RRIRGRPPRLPRPRPRPPPVPRP | 1.25
RRIRCRPPRLPRPRPRPSDCPRP | -0.387
RRIRYRPPRLPRPRPRPMAKPRP | -0.0343
RRIRPRPPRLPRPRPRPLTKPRP | 0.0122
RRIRWRPPRLPRPRPRPMWVPRP | -0.0542
RRIRRRPPRLPRPRPRPGSTPRP | 0.1
RRIRNRPPRLPRPRPRPTVGPRP | -0.0817
RRIRMRPPRLPRPRPRPNMNPRP | -0.056
RRIRPRPPRLPRPRPRPVARPRP | 0.245
RRIRFRPPRLPRPRPRPADKPRP | 0.0852
RRIRSRPPRLPRPRPRPAMPPRP | 0.206
RRIRVRPPRLPRPRPRPCSWPRP | -0.109
RRIRDRPPRLPRPRPRPHKPPRP | -0.000627
RRIRIRPPRLPRPRPRPDCRPRP | -0.015
RRIRRRPPRLPRPRPRPIEVPRP | 0.0048
RRIRYRPPRLPRPRPRPSLVPRP | -0.291
RRIRFRPPRLPRPRPRPSYKPRP | -0.819
RRIRCRPPRLPRPRPRPKRWPRP | 0.627
RRIRGRPPRLPRPRPRPDQYPRP | -0.212
RRIRVRPPRLPRPRPRPSDVPRP | -0.184
RRIRERPPRLPRPRPRPPSMPRP | -0.242
RRIRYRPPRLPRPRPRPAWWPRP | 0.365
RRIRMRPPRLPRPRPRPDIEPRP | 1.3

Sequence | shrunken log2 fold change
RRIRNRPPRLPRPRPRPPTIPRP | 0.244
RRIRWRPPRLPRPRPRPTVWPRP | 0.533
RRIRQRPPRLPRPRPRPVLKPRP | -0.108
RRIRLRPPRLPRPRPRPTCGPRP | 0.281
RRIRCRPPRLPRPRPRPGPWPRP | 0.422
RRIRYRPPRLPRPRPRPFVGPRP | -0.193
RRIRTRPPRLPRPRPRPCWFPRP | -0.21
RRIRDRPPRLPRPRPRPLYWPRP | -0.112
RRIRHRPPRLPRPRPRPNNVPRP | -0.68
RRIRSRPPRLPRPRPRPGGFPRP | 0.245
RRIRWRPPRLPRPRPRPWQNPRP | -0.159
RRIRVRPPRLPRPRPRPVFKPRP | -0.196
RRIRQRPPRLPRPRPRPPIAPRP | 0.104
RRIRHRPPRLPRPRPRPTPNPRP | -0.00791
RRIRMRPPRLPRPRPRPYLFPRP | -0.0192
RRIRDRPPRLPRPRPRPCAYPRP | 0.297
RRIRPRPPRLPRPRPRPSMWPRP | -0.252
RRIRTRPPRLPRPRPRPMWCPRP | -0.172
RRIRGRPPRLPRPRPRPTATPRP | 3.4
RRIRMRPPRLPRPRPRPITNPRP | -0.192
RRIRFRPPRLPRPRPRPLRYPRP | -0.192
RRIRDRPPRLPRPRPRPSEVPRP | 0.561
RRIRWRPPRLPRPRPRPIDIPRP | -0.535
RRIRQRPPRLPRPRPRPHEMPRP | -0.111
RRIRGRPPRLPRPRPRPPHTPRP | 0.985

Sequence | shrunken log2 fold change
RRIRMRPPRLPRPRPRPWVLPRP | 0.0155
RRIRRRPPRLPRPRPRPWKEPRP | -0.00773
RRIRIRPPRLPRPRPRPCDAPRP | -0.27
RRIRLRPPRLPRPRPRPVVSPRP | -0.054
RRIRVRPPRLPRPRPRPMFQPRP | -0.267
RRIRSRPPRLPRPRPRPLCMPRP | -0.242
RRIRIRPPRLPRPRPRPMAIPRP | -0.274
RRIRCRPPRLPRPRPRPTLEPRP | 0.0452
RRIRWRPPRLPRPRPRPTKYPRP | -0.124
RRIRGRPPRLPRPRPRPTNYPRP | 1.07
RRIRGRPPRLPRPRPRPRIRPRP | 0.211
RRIRWRPPRLPRPRPRPNMCPRP | -0.0387
RRIRMRPPRLPRPRPRPQAWPRP | -0.0331
RRIRARPPRLPRPRPRPCKSPRP | 0.0355
RRIRYRPPRLPRPRPRPVLNPRP | -0.258
RRIRERPPRLPRPRPRPMNPPRP | -0.488
RRIRDRPPRLPRPRPRPCDLPRP | -0.0487
RRIRVRPPRLPRPRPRPDAPPRP | 0.422
RRIRTRPPRLPRPRPRPRGVPRP | 0.196
RRIRVRPPRLPRPRPRPFELPRP | 0.0193
RRIRCRPPRLPRPRPRPDVAPRP | 0.298
RRIRNRPPRLPRPRPRPATEPRP | 0.00868
RRIRDRPPRLPRPRPRPAKLPRP | 0.0322
RRIRERPPRLPRPRPRPSMGPRP | -0.817
RRIRSRPPRLPRPRPRPDQYPRP | -2.18

Sequence | shrunken log2 fold change
RRIRRRPPRLPRPRPRPGLHPRP | 0.0196
RRIRFRPPRLPRPRPRPWRWPRP | 0.0911
RRIRFRPPRLPRPRPRPNCAPRP | 0.154
RRIRCRPPRLPRPRPRPRLTPRP | 0.0689
RRIRNRPPRLPRPRPRPSLRPRP | -0.00371
RRIRNRPPRLPRPRPRPYFQPRP | -0.317
RRIRHRPPRLPRPRPRPSFMPRP | -0.699
RRIRCRPPRLPRPRPRPIGTPRP | -0.279
RRIRMRPPRLPRPRPRPIMIPRP | -0.16
RRIRERPPRLPRPRPRPKNMPRP | -0.479
RRIRRRPPRLPRPRPRPAPIPRP | 0.92
RRIRKRPPRLPRPRPRPHYPPRP | -0.16
RRIRERPPRLPRPRPRPFRDPRP | 0.0112
RRIRFRPPRLPRPRPRPIYYPRP | -1.24
RRIRMRPPRLPRPRPRPWRHPRP | 0.0256
RRIRMRPPRLPRPRPRPQVTPRP | -0.116
RRIRARPPRLPRPRPRPVHLPRP | 0.215
RRIRVRPPRLPRPRPRPKCCPRP | -0.0953
RRIRARPPRLPRPRPRPFTAPRP | -0.111
RRIRPRPPRLPRPRPRPLSLPRP | 0.0584
RRIRMRPPRLPRPRPRPCEVPRP | -0.181
RRIRNRPPRLPRPRPRPDWPPRP | 0.0862
RRIRMRPPRLPRPRPRPAQSPRP | 2.88
RRIRTRPPRLPRPRPRPYTHPRP | -0.338
RRIRKRPPRLPRPRPRPNILPRP | -0.193

Sequence | shrunken log2 fold change
RRIRCRPPRLPRPRPRPNKQPRP | -0.201
RRIRLRPPRLPRPRPRPMISPRP | 0.00361
RRIRPRPPRLPRPRPRPQFLPRP | -0.164
RRIRMRPPRLPRPRPRPFYKPRP | -0.266
RRIRYRPPRLPRPRPRPHWSPRP | -0.318
RRIRQRPPRLPRPRPRPVWFPRP | 0.111
RRIRDRPPRLPRPRPRPEVCPRP | 0.0705
RRIRARPPRLPRPRPRPGQNPRP | 0.596
RRIRPRPPRLPRPRPRPHHAPRP | -0.125
RRIRLRPPRLPRPRPRPLNEPRP | -0.0224
RRIRFRPPRLPRPRPRPGHDPRP | 0.062
RRIRERPPRLPRPRPRPTEYPRP | -0.123
RRIRERPPRLPRPRPRPGVTPRP | 0.00546
RRIRQRPPRLPRPRPRPVILPRP | -0.0369
RRIRLRPPRLPRPRPRPEFFPRP | 0.02
RRIRPRPPRLPRPRPRPKLTPRP | 0.421
RRIRNRPPRLPRPRPRPFHSPRP | -0.0225
RRIRPRPPRLPRPRPRPWTFPRP | -0.00547
RRIRIRPPRLPRPRPRPGMRPRP | 0.43
RRIRPRPPRLPRPRPRPMIDPRP | -0.16
RRIRCRPPRLPRPRPRPGEEPRP | 0.135
RRIRIRPPRLPRPRPRPRWQPRP | 0.128
RRIRPRPPRLPRPRPRPMTHPRP | -0.268
RRIRIRPPRLPRPRPRPGALPRP | -0.111
RRIRVRPPRLPRPRPRPEQRPRP | 0.0562

Sequence | shrunken log2 fold change
RRIRVRPPRLPRPRPRPGFCPRP | 0.352
RRIRPRPPRLPRPRPRPWRQPRP | 0.0206
RRIRHRPPRLPRPRPRPQHIPRP | -0.595
RRIRLRPPRLPRPRPRPTFAPRP | 0.394
RRIRFRPPRLPRPRPRPRHTPRP | -0.00169
RRIRWRPPRLPRPRPRPIVIPRP | -0.353
RRIRYRPPRLPRPRPRPHAPPRP | -0.0159
RRIRERPPRLPRPRPRPSNYPRP | -1.12
RRIRCRPPRLPRPRPRPKMPPRP | 0.0277
RRIRGRPPRLPRPRPRPWMMPRP | -0.0114
RRIRVRPPRLPRPRPRPQKYPRP | -0.783
RRIRHRPPRLPRPRPRPWPPPRP | 0.491
RRIRYRPPRLPRPRPRPTPHPRP | -0.181
RRIRTRPPRLPRPRPRPMPNPRP | -0.17
RRIRNRPPRLPRPRPRPQCIPRP | -0.135
RRIRPRPPRLPRPRPRPCCMPRP | -0.144
RRIRARPPRLPRPRPRPICDPRP | 0.497
RRIRKRPPRLPRPRPRPAEIPRP | -0.119
RRIRTRPPRLPRPRPRPCHVPRP | -0.114
RRIRNRPPRLPRPRPRPLNHPRP | -0.286
RRIRSRPPRLPRPRPRPLWFPRP | 0.274
RRIRFRPPRLPRPRPRPWYTPRP | -0.38
RRIRYRPPRLPRPRPRPLTWPRP | -0.333
RRIRPRPPRLPRPRPRPGVLPRP | 0.219
RRIRARPPRLPRPRPRPWNIPRP | -0.675
